According to publication PMC6910952 (Nature Communications, 2019):
Residue numbers refer to the chain shown, from its start. No end group written: not given here.

How the values were obtained:
Experiment in all cases: fluorescence polarisation; fluorescence anisotropy; 1 nM FlAsH-labeled His6-SUMO-yUfd1 peptide, His6-yNpl4^113–580 in two-fold dilution series; 25 °C; 50 mM Tris-HCl pH 8.0, 100 mM NaCl, 5 mM β-mercaptoethanol, 0.1 g/L BSA
Conditions in all cases: both partners purified
His6-yNpl4^113–580 L296A = molecular target: T1, His6-yNpl4^113–580 L296A (Saccharomyces cerevisiae, UniProt P33755 113-580, L296A)
T1 construct: also called yNpl4 L296A; source: E. coli Rosetta (DE3), purified (Ni-NTA, Resource Q); not shown: His6, N-terminal, kept
T1 sequence (looked up): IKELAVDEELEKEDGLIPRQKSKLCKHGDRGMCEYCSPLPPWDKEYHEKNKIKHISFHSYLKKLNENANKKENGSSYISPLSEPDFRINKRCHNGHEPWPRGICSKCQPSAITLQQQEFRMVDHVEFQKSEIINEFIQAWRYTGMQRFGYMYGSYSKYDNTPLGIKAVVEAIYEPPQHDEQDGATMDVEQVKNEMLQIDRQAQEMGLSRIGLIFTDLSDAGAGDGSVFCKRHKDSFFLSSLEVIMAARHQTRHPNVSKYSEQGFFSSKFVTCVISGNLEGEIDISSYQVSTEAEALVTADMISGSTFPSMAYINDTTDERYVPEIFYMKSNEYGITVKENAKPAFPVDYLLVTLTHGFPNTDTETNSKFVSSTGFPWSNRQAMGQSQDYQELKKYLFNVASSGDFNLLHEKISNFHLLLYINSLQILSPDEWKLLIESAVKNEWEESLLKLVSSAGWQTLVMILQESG

His6-yNpl4^113–580 R364A = molecular target: T2, His6-yNpl4^113–580 R364A (Saccharomyces cerevisiae, UniProt P33755 113-580, R364A)
T2 construct: also called yNpl4 R364A; source: E. coli Rosetta (DE3), purified (Ni-NTA, Resource Q); not shown: His6, N-terminal, kept
T2 sequence (looked up): T1 sequence (looked up) with A184L, R252A

His6-yNpl4^113–580 Y424A = molecular target: T3, His6-yNpl4^113–580 Y424A (Saccharomyces cerevisiae, UniProt P33755 113-580, Y424A)
T3 construct: also called yNpl4 Y424A; source: E. coli Rosetta (DE3), purified (Ni-NTA, Resource Q); not shown: His6, N-terminal, kept
T3 sequence (looked up): T1 sequence (looked up) with A184L, Y312A

His6-yNpl4^113–580 L353A = molecular target: T4, His6-yNpl4^113–580 L353A (Saccharomyces cerevisiae, UniProt P33755 113-580, L353A)
T4 construct: also called yNpl4 L353A; source: E. coli Rosetta (DE3), purified (Ni-NTA, Resource Q); not shown: His6, N-terminal, kept
T4 sequence (looked up): T1 sequence (looked up) with A184L, L241A

Kd (His6-yNpl4^113–580 L296A): 7.02 µM
Kd (His6-yNpl4^113–580 R364A): 0.314 µM
Kd (His6-yNpl4^113–580 Y424A): 8.45 µM
Kd (His6-yNpl4^113–580 L353A): 1.38 µM
B1: FlAsH-labeled His6-SUMO-yUfd1^288–305-GWCCPGCC (peptide, UniProt P53044 288-305, looked up)
chain: {His6-SUMO}-EPAKLDLPEGQLFFGFPMGWCCPGCC
modifications: cysteine pairing not given here; also: FlAsH label bound to CCPGCC motif
notes: the assay methods print 280-305; also called yUfd1-FlAsH; yUfd1 WT; source: E. coli Rosetta (DE3) (pCold-SUMO), purified (Ni-NTA, Resource Q), labeled with FlAsH-EDT2; not shown: His6, N-terminal, kept; SUMO, N-terminal, kept
